# Source: paper PMC10620413, “Dimeric Transmembrane Structure of the SARS-CoV-2 E Protein” (Communications Biology, 2023)
# Key:
# [1] = target: SARS-CoV-2 E protein transmembrane domain E_(12–37) (SARS-CoV-2 (isolate Wuhan-Hu-1)); assay: SDS-PAGE
# SDS-PAGE = target: the molecule itself; assay: SDS-PAGE
Molecule,stoichiometry N [1],stoichiometry N (SDS-PAGE)
SARS-CoV-2 E protein transmembrane domain E_(12–37) (domain or fragment),2,–
"SNAETGTLIVNSVLLFLAFVVFLLVTLAILTALRLSA (domain or fragment, not shown: MBP, N-terminal, cleaved) [SARS-CoV-2 E protein fragment E_(8–41)]",–,2
